Laboratory results from IntAct's records for PubMed 16762039.

B1: Hypermethylated in cancer 1 protein (Homo sapiens), Q14526 (parent)
chain: MTFPEADILLKSGECAGQTMLDTMEAPGHSRQLLLQLNNQRTKGFLCDVIIVVQNALFRAHKNVLAASSAYLKSLVVHDNLLNLDHDMVSPAVFRLVLDFIYTGRLADGAEAAAAAAVAPGAEPSLGAVLAAASYLQIPDLVALCKKRLKRHGKYCHLRGGGGGGGGYAPYGRPGRGLRAATPVIQACYPSPVGPPPPPAAEPPSGPEAAVNTHCAELYASGPGPAAALCASERRCSPLCGLDLSKKSPPGSAAPERPLAERELPPRPDSPPSAGPAAYKEPPLALPSLPPLPFQKLEEAAPPSDPFRGGSGSPGPEPPGRPDGPSLLYRWMKHEPGLGSYGDELGRERGSPSERCEERGGDAAVSPGGPPLGLAPPPRYPGSLDGPGAGGDGDDYKSSSEETGSSEDPSPPGGHLEGYPCPHLAYGEPESFGDNLYVCIPCGKGFPSSEQLNAHVEAHVEEEEALYGRAEAAEVAAGAAGLGPPFGGGGDKVAGAPGGLGELLRPYRCASCDKSYKDPATLRQHEKTHWLTRPYPCTICGKKFTQRGTMTRHMRSHLGLKPFACDACGMRFTRQYRLTEHMRIHSGEKPYECQVCGGKFAQQRNLISHMKMHAVGGAAGAAGALAGLGGLPGVPGPDGKGKLDFPEGVFAVARLTAEQLSLKQQDKAAAAELLAQTTHFLHDPKVALESLYPLAKFTAELGLSPDKAAEVLSQGAHLAAGPDGRTIDRFSPT

Variants of: B1
Conditions: with ctbp2_mouse Ctbp2, P56546
Chain of ctbp2_mouse Ctbp2, P56546 (P56546 whole entry): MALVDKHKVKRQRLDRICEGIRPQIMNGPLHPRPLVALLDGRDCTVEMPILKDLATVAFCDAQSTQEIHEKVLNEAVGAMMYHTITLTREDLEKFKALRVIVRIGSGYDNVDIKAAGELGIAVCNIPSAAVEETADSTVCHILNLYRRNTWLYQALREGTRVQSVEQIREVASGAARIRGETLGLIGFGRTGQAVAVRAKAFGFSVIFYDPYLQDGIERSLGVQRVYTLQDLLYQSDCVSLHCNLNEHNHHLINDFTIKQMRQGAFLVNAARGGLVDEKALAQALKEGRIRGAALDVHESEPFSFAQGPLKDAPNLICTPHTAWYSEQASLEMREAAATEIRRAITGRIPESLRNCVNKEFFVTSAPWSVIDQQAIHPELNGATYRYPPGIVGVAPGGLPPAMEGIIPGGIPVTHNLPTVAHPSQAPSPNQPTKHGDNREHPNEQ

Variant | effect of a mutation on the interaction
L244A | disrupting interaction

Variants of: B1
Conditions: with ctbp1_mouse Ctbp1, O88712

Variant | effect of a mutation on the interaction
L244A | disrupting interaction
